From publication PMC7275063, “Rab35-regulated lipid turnover by myotubularins represses mTORC1 activity and controls myelin growth” (Nature Communications, 2020)

Target: eGFP-Rab35CA (Q67L), GTP-locked, constitutively active (mouse, UniProt Q6PHN9 1-201, Q67L)
Experiment: co-IP; eGFP-Rab35CA or -DN captured on eGFP-Trap_MA beads from lysates of HEK293T cells co-expressing MTMR13 constructs, 24 h after transfection; 90 min at 4 °C; immunoblot
Conditions: partners not purified

eGFP-Rab35CA (Q67L), GTP-locked, constitutively active, sequence (Q6PHN9 whole entry Q67L): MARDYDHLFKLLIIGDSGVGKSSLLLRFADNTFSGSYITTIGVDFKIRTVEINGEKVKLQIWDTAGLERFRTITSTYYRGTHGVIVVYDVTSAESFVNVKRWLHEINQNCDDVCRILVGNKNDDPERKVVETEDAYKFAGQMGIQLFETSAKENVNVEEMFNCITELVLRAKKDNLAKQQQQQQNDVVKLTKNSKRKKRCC

ratio of FLAG-MTMR13 bound to CA over DN: 11.6
B1: N-terminally FLAG-tagged MTMR13 (natural protein)
chain: not shown
notes: MTMR13 (SBF2), full length, printed as aa1-1848, 5547 bp; other constructs end at aa1849; Gift plasmid in pcDNA3.1; the printed length of 1849 codons fits the human protein; also called FLAG-MTMR13; source: HEK293T, transfected, in lysate; not shown: FLAG, N-terminal, kept
